Assay results published in article PMC8423902.

Target: trimeric SARS-CoV-2 ectodomain (S 6P trimer, residues 16-1206) (SARS-CoV-2) (UniProt P0DTC2)
Assay: cryo-EM structure

**Q.** How did the stoichiometry N turn out when “trimeric SARS-CoV-2 ectodomain (S 6P trimer, residues 16-1206) (from UniProt P0DTC2 16-1206)” was run?
**A.** 3
